The record followed here is article PMC7538550.

For the assay, the target named is FMDV A2001 Argentina capsid protomer (VP0, VP3 and VP1 cut from the polyprotein P12A by protease 3C) (Foot-and-mouth disease virus, serotype A, A2001 Argentina strain). As to the kind of experiment: sucrose gradient ultracentrifugation with ELISA of the fractions.

On to “FMDV A2001 Argentina capsid protomer (VP0, VP3 and VP1 cut from the polyprotein P12A by protease 3C) (complex)”, for which the percent of the antigen present as complete empty capsids (75s) came to 84%.
